Assays:
重组SARS-CoV2核蛋白(NP) [1] = target: T1, 重组SARS-CoV2核蛋白(NP) (SARS-CoV-2, UniProt P0DTC9 1-419); experiment: double-antibody sandwich lateral-flow strip, paired with JS08
重组SARS-CoV2核蛋白(NP) [2] = target: T1, 重组SARS-CoV2核蛋白(NP)
重组SARS-CoV2核蛋白(NP) [3] = target: 重组SARS-CoV2核蛋白(NP) (SARS-CoV-2, UniProt P0DTC9 1-419); remark: listed apart in the source

B1: JS01 (antibody, V domains shown)
VH: QVQLVESGAEVKKPGSSVKVSCKASGGTFSSYAISWVRQAPGQGLEWMGGIIPIFGTANYAQKFQGRVTITADESTSTAYMELSSLRSEDTAVYYCARGGWRSSGYHDYSYYGMDVWGQGTTVTVSS
VL: not shown
重组SARS-CoV2核蛋白(NP) [1]
  检测限 (detection limit for NP): < 2 ng/mL
重组SARS-CoV2核蛋白(NP) [2]
  Kd: 0.22 nM
  koff: 0.000479 s⁻¹
  kon: 2.18e+06 M⁻¹ s⁻¹

B2: JS08 (antibody, V domains shown)
VH: QVQLVQSGPGLVKPSETLSLTCTVSGGSISSYYWSWIRQPPGKGLEWIGNIYYSGSTDYNPSLKSRVTISVDTSKNQFSLRLSSVTAADTAVYYCAREQFSGGDYEGFDFWGQGTLVTVSS
VL: QSVLTQEPSVSGAPGQRVTISCTGSSSNIGAGYDVHWYQQLPGTAPKLLIYGNSNRPSGVPDRFSGSKSGTSASLAITGLQAEDEADYYCQSYDSSLSGWVFGGGTKLTVL
重组SARS-CoV2核蛋白(NP) [3]
  Kd: 0.19 nM
  koff: 5.77e-06 s⁻¹
  kon: 30300 M⁻¹ s⁻¹

B3: JS14 (antibody, V domains shown)
VH: EVQLLESGGGVVQPGRSLRLSCAASGFTFSSYGMHWVRQAPGKGLEWVAVIWYDGSNKYYADSVKGRFTISRDNSKNTLYLQMNSLRAEDTAVYYCARDGSGSYYWGSLDYWGQGTLVTVSS
VL: not shown
重组SARS-CoV2核蛋白(NP) [1]
  检测限 (detection limit for NP): < 2 ng/mL
重组SARS-CoV2核蛋白(NP) [2]
  Kd: 0.178 nM
  koff: 0.000221 s⁻¹
  kon: 1.24e+06 M⁻¹ s⁻¹

B4: JS11 (antibody, V domains shown)
VH: EVQLLESGGGVVQPGRSLRLSCAASGFTFSSYGMHWVRQAPGKGLEWVAVIWYDGSNKYYADSVKGRFTISRDNSKNTLYLQMNSLRAEDTAVYYCVGPLMVRGVIIPWGQGTLVTVSS
VL: not shown
重组SARS-CoV2核蛋白(NP) [2]
  Kd: 0.292 nM
  koff: 5.62e-05 s⁻¹
  kon: 193000 M⁻¹ s⁻¹

B5: JS05 (antibody, V domains shown)
VH: EVQLLESGGGVVQPGRSLRLSCAASGFIFSSYGMHWVRQAPGKGLEWVAVIWYDGSNKYYADSVKGRFTISRDNSKNTLYLQMNSLRAEDTAVYYCARDLRGPTGWTFDYWGQGTLVTVSS
VL: ENVLTQSPATLSLSPGERATLSCRASQSVSNYLAWYQQRPGQAPRLLIYDSSNRATGIPARFSGSGSGTDFTLTISSLEPEDFAVYYCQHRSNWKITFGQGTRLEIK
重组SARS-CoV2核蛋白(NP) [1]
  检测限 (detection limit for NP): < 2 ng/mL
重组SARS-CoV2核蛋白(NP) [2]
  Kd: 0.409 nM
  koff: 0.000243 s⁻¹
  kon: 594000 M⁻¹ s⁻¹

B6: JS12 (antibody, V domains shown)
VH: EVQLLESGGGVVQPGRSLRLSCAASGFTFSSYGMHWVRQAPGKGLEWVAVIWYDGSNKYYADSVKGRFTISRDNSKNTLYLQMNSLRAEDTAVYYCARDGSGSYYWGSLDYWGQGTLVTVSS
VL: ENVLTQSPATLSLSPGERATLSCRASQSVSSYLAWYQQKPGQAPRLLIYGASNRATGIPARFSGSGSGTDFTLTISSLEPEDFAVYYCQQRSNWPWTFGQGTKVEIK
重组SARS-CoV2核蛋白(NP) [1]
  检测限 (detection limit for NP): < 2 ng/mL
重组SARS-CoV2核蛋白(NP) [2]
  Kd: 0.15 nM
  koff: 7.33e-05 s⁻¹
  kon: 488000 M⁻¹ s⁻¹

B7: JS06 (antibody, V domains shown)
VH: EVQLLESGGGVVQPGRSLRLSCAASGFTFSSYGMHWVRQAPGKGLEWVAVIWYDGSNKYYADSVKGRFTISRDNSKNTLYLQMNSLRAEDTAVYYCARAAYGPYYGMDVWGQGTTVTVSS
VL: not shown
重组SARS-CoV2核蛋白(NP) [3]
  Kd: 16.1 nM
  koff: 0.00258 s⁻¹
  kon: 161000 M⁻¹ s⁻¹

B8: JS13 (antibody, V domains shown)
VH: QVQLVQSGAEVKKPGSSVKVSCKASGGTFSSYAISWVRQAPGQGLEWMGGIIPIFGTANYAQKFQGRVTITADESTSTAYMELSSLRSEDTAVYYCARGGWVICSSTSCYTKYSYYGMDVWGQGTTVTVSS
VL: QSVLTQPPSVSAAPGQKVTISCSGSSSNIGNNYVSWYQQLPGTAPKLLIYDNNKRPSGIPDRFSGSKSGTSATLGITGLQTGDEADYYCGTWDSSLIARLFGGGTKLTVL
重组SARS-CoV2核蛋白(NP) [1]
  检测限 (detection limit for NP): < 2 ng/mL
重组SARS-CoV2核蛋白(NP) [2]
  Kd: 0.12 nM
  koff: 9.66e-05 s⁻¹
  kon: 805000 M⁻¹ s⁻¹
